Source: patent US20250154283A1 (published 2025)

Columns and labels:
[1] = molecular target: T1, His-StrepTagII-HRV3C-human VWF-CK-HA-tag (human); test: solution-phase equilibrium binding, free antibody by ELISA; apparent Kd; pH 5.5; mean ± SD, n=2
T1 construct: it begins with the VWF signal peptide, whose limits were marked only by underlining that is lost in the text, so it was not cut off; The CK domain forms disulfide-linked homodimers (CK dimer); also called recombinant human CK domain; Human CK
T1 chain: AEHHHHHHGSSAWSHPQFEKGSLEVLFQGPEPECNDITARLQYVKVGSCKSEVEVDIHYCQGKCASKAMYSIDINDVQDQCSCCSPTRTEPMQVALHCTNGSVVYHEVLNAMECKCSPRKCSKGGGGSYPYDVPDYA
Description: (§1) Following incubation for 30 min at room temperature to establish equilibrium, unbound antibody was quantified by ELISA using the immobilized human CK domain for capture and HRP-conjugated goat anti-human IgG Fc antibody for detection.
(§2) Following a single wash of the plate with 200 μL of wash buffer (TBS containing 0.05% (v/v) Tween-20 and 5 mM CaCl₂), the plate was blocked by incubation with 200 μL blocking buffer (TBS containing 5 mM CaCl₂ and 1% (w/w) BSA) for 1 hour at room temperature. […] Incubation lasted 3 min and was followed by 5-min incubation with 100 μL HRP-conjugated goat anti-human IgG Fc antibody for detection (1 mg/mL stock diluted 1:20,000 in blocking buffer). Before and after addition of a detection antibody, the plate was washed 5 times with 200 μL wash buffer. A chromogenic horseradish peroxidase (HRP) substrate (100 μL) was then added and following color development for 3 min, 100 μL ELISA stop solution were added to quench the reaction. Absorbance was measured at 450 nm with subtraction of the absorbance at 620 nm.
(§3) The standard curve prepared with free antibody was fitted to a Sigmoidal four-parameter logistic (4PL) model.

[2] = molecular target: T2, human plasma-derived VWF (human, UniProt P04275 764-2813); test: solution-phase equilibrium binding, free antibody by ELISA; apparent Kd; pH 7.4; mean ± SD, n=2
T2 construct: multimeric; also called pd-VWF; Human VWF
Description: as §1, §2, §3

[3] = molecular target: T1, His-StrepTagII-HRV3C-human VWF-CK-HA-tag; test: as above
Description: as §1, §2, §3

[4] = molecular target: T3, His-StrepTagII-HRV3C-cyno VWF-CK-HA-tag (cynomolgus monkey); test: as above
T3 construct: it begins with the VWF signal peptide, whose limits were marked only by underlining that is lost in the text, so it was not cut off; The CK domain forms disulfide-linked homodimers; also called recombinant cyno CK domain; Cyno CK
T3 chain: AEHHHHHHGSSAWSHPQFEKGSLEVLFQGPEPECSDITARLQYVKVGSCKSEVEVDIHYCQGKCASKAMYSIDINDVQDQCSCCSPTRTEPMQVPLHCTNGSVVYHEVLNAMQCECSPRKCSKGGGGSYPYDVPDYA
Description: as §1, §2, §3

[5] = molecular target: T4, VWF in human plasma (human, UniProt P04275 764-2813); test: VWF:FVIIIB enzyme immunoassay; human plasma (5 donors) 17 h 37 °C with 200 nM antibody; FVIII bound to captured VWF relative to untreated plasma; ligand FVIII
T4 construct: Endogenous VWF in donor plasma, not purified; multimeric; also called VWF in plasma; VWF in platelet rich plasma

[6] = molecular target: T4, VWF in human plasma; test: VWF:FVIIIB enzyme immunoassay; human plasma (5 donors) 17 h 37 °C with 600 nM antibody; FVIII bound to captured VWF relative to untreated plasma; ligand FVIII
[7] = molecular target: T4, VWF in human plasma; test: collagen type III binding ELISA; human plasma (5 donors) 17 h 37 °C with 600 nM antibody; VWF bound to collagen relative to untreated plasma; ligand collagen type III
Description: Following incubation, collagen binding was determined relative to untreated plasma.

[8] = molecular target: T4, VWF in human plasma; test: flow cytometry, FITC anti-VWF on platelets; human PRP (2 donors), 0.5 mg/ml ristocetin, 600 nM antibody; relative to the same plasma without antibody; receptor platelet gp1b
Description: PRP was prepared by centrifuging the blood at 250 g for 15 min. […] Sample analysis was performed on a flow cytometer. Using forward (FSC) and sideward (SSC) scatter pattern, a gate was placed on the platelets.

[9] = molecular target: T5, His-StrepTagII-HRV3C-cyno VWF-CK-HA-tag (cynomolgus monkey); test: solution-phase equilibrium binding, unbound antibody by ELISA
T5 construct: also called recombinant cyno CK domain; cyno CK
T5 chain: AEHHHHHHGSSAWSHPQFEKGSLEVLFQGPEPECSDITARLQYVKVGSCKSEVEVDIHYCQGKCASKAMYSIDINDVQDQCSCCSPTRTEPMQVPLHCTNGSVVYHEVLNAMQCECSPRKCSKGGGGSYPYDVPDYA

[10] = molecular target: T6, human plasma-derived von Willebrand Factor (VWF) (human, UniProt P04275 764-2813); test: VWF:FVIIIB enzyme immunoassay, FVIII binding capacity of plasma VWF after incubation with 200 or 600 nM antibody; FVIII as the partner tested
T6 construct: also called pd-VWF; human plasma-derived VWF

B1: Lib1_P1_G3 OA (antibody, human IgG4 S228P, kappa, F234A L235A)
heavy: QVQLVQSGAEVKKPGASVKVSCKVSGYTSRQYIHWVRQAPGKGLEWMGWVTPIFGTTNYAQKFQGRVTMTEDTSTDTAYMELSSLKSEDTAVYYCAREWTGTTAFDIWGQGTLVTVSSASTKGPSVFPLAPCSRSTSESTAALGCLVKDYFPEPVTVSWNSGALTSGVHTFPAVLQSSGLYSLSSVVTVPSSSLGTKTYTCNVDHKPSNTKVDKRVESKYGPPCPPCPAPEAAGGPSVFLFPPKPKDTLMISRTPEVTCVVVDVSQEDPEVQFNWYVDGVEVHNAKTKPREEQFNSTYRVVSVLTVLHQDWLNGKEYKCKVSNKGLPSSIEKTISKAKGQPREPQVYTLPPSQEEMTKNQVSLSCAVKGFYPSDIAVEWESNGQPENNYKTTPPVLDSDGSFFLVSRLTVDKSRWQEGNVFSCSVMHEALHNHYTQKSLSLSLG
chain: ESKYGPPCPPCPAPEAAGGPSVFLFPPKPKDTLMISRTPEVTCVVVDVSQEDPEVQFNWYVDGVEVHNAKTKPREEQFNSTYRVVSVLTVLHQDWLNGKEYKCKVSNKGLPSSIEKTISKAKGQPREPQVYTLPPSQEEMTKNQVSLWCLVKGFYPSDIAVEWESNGQPENNYKTTPPVLDSDGSFFLYSRLTVDKSRWQEGNVFSCSVMHEALHNHYTQKSLSLSLG
light: DIQMTQSPSSVSASVGDRVTITCRASQDIGHYLAWYQQKPGKAPKLLIYAASNRASGVPSRFSGSGSGTDFTLTISSLQPEDFANYYCQQGYSAPYGFGGGTKVEIKRTVAAPSVFIFPPSDEQLKSGTASVVCLLNNFYPREAKVQWKVDNALQSGNSQESVTEQDSKDSTYSLSSTLTLSKADYEKHKVYACEVTHQGLSSPVTKSFNRGEC
With B1 the Kd [1] was 32.3 nM, the Kd [2] was 5.3 nM and the Kd [3] was 4.3 nM. For the same binder, the Kd [4] was 11 nM, the “VWF:FVIII level (% of control)” value [5] was 84.5 % of control and the “VWF:FVIII level (% of control)” value [6] was 85.8 % of control. For the same binder, the “Collagen binding (% control)” value [7] was 108 % control and the “Platelet binding (% control)” value [8] was 101 % control.

B2: 399_Lib1 OA (antibody, human IgG4 S228P, kappa, F234A L235A)
heavy: QVQLVQSGAEVKKPGASVKVSCKVSGITFTSDYIHWVRQAPGKGLEWMGGMNPYSNKAIYAQKFQGRVTMTEDTSTDTAYMELSSLKSEDTAVYYCATGGLRIAARTSYFDYWGQGTLVTVSSASTKGPSVFPLAPCSRSTSESTAALGCLVKDYFPEPVTVSWNSGALTSGVHTFPAVLQSSGLYSLSSVVTVPSSSLGTKTYTCNVDHKPSNTKVDKRVESKYGPPCPPCPAPEAAGGPSVFLFPPKPKDTLMISRTPEVTCVVVDVSQEDPEVQFNWYVDGVEVHNAKTKPREEQFNSTYRVVSVLTVLHQDWLNGKEYKCKVSNKGLPSSIEKTISKAKGQPREPQVYTLPPSQEEMTKNQVSLSCAVKGFYPSDIAVEWESNGQPENNYKTTPPVLDSDGSFFLVSRLTVDKSRWQEGNVFSCSVMHEALHNHYTQKSLSLSLG
chain: ESKYGPPCPPCPAPEAAGGPSVFLFPPKPKDTLMISRTPEVTCVVVDVSQEDPEVQFNWYVDGVEVHNAKTKPREEQFNSTYRVVSVLTVLHQDWLNGKEYKCKVSNKGLPSSIEKTISKAKGQPREPQVYTLPPSQEEMTKNQVSLWCLVKGFYPSDIAVEWESNGQPENNYKTTPPVLDSDGSFFLYSRLTVDKSRWQEGNVFSCSVMHEALHNHYTQKSLSLSLG
light: DIQMTQSPSSVSASVGDRVTITCRASMDIAGSLAWYQQKPGKAPKLLIYDTSFRATGVPSRFSGSGSGTDFTLTISSLQPEDFANYYCQQYDNPPRLTFGGGTKVEIKRTVAAPSVFIFPPSDEQLKSGTASVVCLLNNFYPREAKVQWKVDNALQSGNSQESVTEQDSKDSTYSLSSTLTLSKADYEKHKVYACEVTHQGLSSPVTKSFNRGEC
B2 gave a Kd [3] of 13 nM and a Kd [4] of 16.8 nM.

B3: Lib1_P1_A9 OA (antibody, human IgG4 S228P, kappa, F234A L235A)
heavy: QVQLVQSGAEVKKPGASVKVSCKVSGDTLSSYGIHWVRQAPGKGLEWMGGSIPSFGTAIYAQKFQGRVTMTEDTSTDTAYMELSSLKSEDTAVYYCTSEGPWLPFFSFDYWGQGTLVTVSSASTKGPSVFPLAPCSRSTSESTAALGCLVKDYFPEPVTVSWNSGALTSGVHTFPAVLQSSGLYSLSSVVTVPSSSLGTKTYTCNVDHKPSNTKVDKRVESKYGPPCPPCPAPEAAGGPSVFLFPPKPKDTLMISRTPEVTCVVVDVSQEDPEVQFNWYVDGVEVHNAKTKPREEQFNSTYRVVSVLTVLHQDWLNGKEYKCKVSNKGLPSSIEKTISKAKGQPREPQVYTLPPSQEEMTKNQVSLSCAVKGFYPSDIAVEWESNGQPENNYKTTPPVLDSDGSFFLVSRLTVDKSRWQEGNVFSCSVMHEALHNHYTQKSLSLSLG
chain: ESKYGPPCPPCPAPEAAGGPSVFLFPPKPKDTLMISRTPEVTCVVVDVSQEDPEVQFNWYVDGVEVHNAKTKPREEQFNSTYRVVSVLTVLHQDWLNGKEYKCKVSNKGLPSSIEKTISKAKGQPREPQVYTLPPSQEEMTKNQVSLWCLVKGFYPSDIAVEWESNGQPENNYKTTPPVLDSDGSFFLYSRLTVDKSRWQEGNVFSCSVMHEALHNHYTQKSLSLSLG
light: DIQMTQSPSSVSASVGDRVTITCRASQGISRNLAWYQQKPGKAPKLLIYKASSLASGVPSRFSGSGSGTDFTLTISSLQPEDFANYYCQQSFSTPVTFGGGTKVEIKRTVAAPSVFIFPPSDEQLKSGTASVVCLLNNFYPREAKVQWKVDNALQSGNSQESVTEQDSKDSTYSLSSTLTLSKADYEKHKVYACEVTHQGLSSPVTKSFNRGEC
notes: also called monovalent (one-arm) Lib1_P1_A9
B3 was tested, and the “fold change in Kd, cyno CK against human CK” value [9] was < 2 fold and the “VWF:FVIII level (% of untreated donor-matched plasma)” value [10] was > 80%.

B4: 399_Lib1 OA (antibody, human IgG4 S228P, kappa, F234A L235A)
heavy: QVQLVQSGAEVKKPGASVKVSCKVSGITFTSDYIHWVRQAPGKGLEWMGGMNPYSNKAIYAQKFQGRVTMTEDTSTDTAYMELSSLKSEDTAVYYCATGGLRIAARTSYFDYWGQGTLVTVSSASTKGPSVFPLAPCSRSTSESTAALGCLVKDYFPEPVTVSWNSGALTSGVHTFPAVLQSSGLYSLSSVVTVPSSSLGTKTYTCNVDHKPSNTKVDKRVESKYGPPCPPCPAPEAAGGPSVFLFPPKPKDTLMISRTPEVTCVVVDVSQEDPEVQFNWYVDGVEVHNAKTKPREEQFNSTYRVVSVLTVLHQDWLNGKEYKCKVSNKGLPSSIEKTISKAKGQPREPQVYTLPPSQEEMTKNQVSLSCAVKGFYPSDIAVEWESNGQPENNYKTTPPVLDSDGSFFLVSRLTVDKSRWQEGNVFSCSVMHEALHNHYTQKSLSLSLG
chain: ESKYGPPCPPCPAPEAAGGPSVFLFPPKPKDTLMISRTPEVTCVVVDVSQEDPEVQFNWYVDGVEVHNAKTKPREEQFNSTYRVVSVLTVLHQDWLNGKEYKCKVSNKGLPSSIEKTISKAKGQPREPQVYTLPPSQEEMTKNQVSLWCLVKGFYPSDIAVEWESNGQPENNYKTTPPVLDSDGSFFLYSRLTVDKSRWQEGNVFSCSVMHEALHNHYTQKSLSLSLG
light: DIQMTQSPSSVSASVGDRVTITCRASMDIAGSLAWYQQKPGKAPKLLIYDTSFRATGVPSRFSGSGSGTDFTLTISSLQPEDFANYYCQQYDNPPRLTFGGGTKVEIKRTVAAPSVFIFPPSDEQLKSGTASVVCLLNNFYPREAKVQWKVDNALQSGNSQESVTEQDSKDSTYSLSSTLTLSKADYEKHKVYACEVTHQGLSSPVTKSFNRGEC
notes: monovalent one-arm human IgG4
B4 was tested, and the “fold change in Kd, cyno CK against human CK” value [9] was < 2 fold.
